Patent publication US20260139061A1 (Novartis, published 2026)

B1: CAR10 (Anti-EGFRvIII clone 139), full CAR on cells (other)
chain: DIQMTQSPSSLSASVGDRVTITCRASQGIRNNLAWYQQKPGKAPKRLIYAASNLQSGVPSRFTGSGSGTEFTLIVSSLQPEDFATYYCLQHHSYPLTSGGGTKVEIKRTGSTSGSGKPGSGEGSEVQVLESGGGLVQPGGSLRLSCAASGFTFSSYAMSWVRQAPGKGLEWVSAISGSGGSTNYADSVKGRFTISRDNSKNTLYLQMNSLRAEDTAVYYCAGSSGWSEYWGQGTLVTVSSTTTPAPRPPTPAPTIASQPLSLRPEACRPAAGGAVHTRGLDFACDIYIWAPLAGTCGVLLLSLVITLYCKRGRKKLLYIFKQPFMRPVQTTQEEDGCSCRFPEEEEGGCELRVKFSRSADAPAYKQGQNQLYNELNLGRREEYDVLDKRRGRDPEMGGKPRRKNPQEGLYNELQKDKMAEAYSEIGMKGERRRGKGHDGLYQGLSTATKDTYDALHMQALPPR
notes: Chimeric antigen receptor (139 scFv, CD8 hinge and TM, 4-1BB, CD3 zeta) on Jurkat, JNL or primary human T cells; also called human CAR10
B2: CAR8 - Soluble scFv (scFv)
scFv: DVVMTQSPLSLPVTLGQPASISCKSSQSLLDSDGKTYLNWLQQRPGQSPRRLISLVSKLDSGVPDRFSGSGSGTDFTLKISRVEAEDVGVYYCWQGTHFPGTFGGGTKVEIKGGGGSGGGGSGGGGSGGGGSEIQLVQSGAEVKKPGATVKISCKGSGFNIEDYYIHWVQQAPGKGLEWMGRIDPENDETKYGPIFQGRVTITADTSTNTVYMELSSLRSEDTAVYYCAFRGGVYWGQGTTVTVSSGSHHHHHHHH
notes: Soluble His-tagged humanized scFv; also called humanized EGFRvIII scFv variant, VK2-VH1, 4G4S
B3: CAR1 Soluble scFv (scFv)
scFv: EIQLVQSGAEVKKPGATVKISCKGSGFNIEDYYIHWVQQAPGKGLEWMGRIDPENDETKYGPIFQGRVTITADTSTNTVYMELSSLRSEDTAVYYCAFRGGVYWGQGTTVTVSSGGGGSGGGGSGGGGSGGGGSDVVMTQSPDSLAVSLGERATINCKSSQSLLDSDGKTYLNWLQQKPGQPPKRLISLVSKLDSGVPDRFSGSGSGTDFTLTISSLQAEDVAVYYCWQGTHFPGTFGGGTKVEIKGSHHHHHHHH
notes: Soluble His-tagged humanized scFv; also called humanized EGFRvIII scFv variant, VH1-VK4, 4G4S
B4: CAR2 - Soluble scFv (scFv)
scFv: DVVMTQSPDSLAVSLGERATINCKSSQSLLDSDGKTYLNWLQQKPGQPPKRLISLVSKLDSGVPDRFSGSGSGTDFTLTISSLQAEDVAVYYCWQGTHFPGTFGGGTKVEIKGGGGSGGGGSGGGGSGGGGSEIQLVQSGAEVKKPGATVKISCKGSGFNIEDYYIHWVQQAPGKGLEWMGRIDPENDETKYGPIFQGRVTITADTSTNTVYMELSSLRSEDTAVYYCAFRGGVYWGQGTTVTVSSGSHHHHHHHH
notes: Soluble His-tagged humanized scFv; also called humanized EGFRvIII scFv variant, VK4-VH1, 4G4S
B5: CAR 3 - Soluble scFv (scFv)
scFv: EIQLVQSGAEVKKPGESLRISCKGSGFNIEDYYIHWVRQMPGKGLEWMGRIDPENDETKYGPIFQGHVTISADTSINTVYLQWSSLKASDTAMYYCAFRGGVYWGQGTTVTVSSGGGGSGGGGSGGGGSGGGGSDVVMTQSPLSLPVTLGQPASISCKSSQSLLDSDGKTYLNWLQQRPGQSPRRLISLVSKLDSGVPDRFSGSGSGTDFTLKISRVEAEDVGVYYCWQGTHFPGTFGGGTKVEIKGSHHHHHHHH
notes: Soluble His-tagged humanized scFv; also called humanized EGFRvIII scFv variant, VH5-VK2, 4G4S
B6: CAR4 - Soluble scFv (scFv)
scFv: DVVMTQSPLSLPVTLGQPASISCKSSQSLLDSDGKTYLNWLQQRPGQSPRRLISLVSKLDSGVPDRFSGSGSGTDFTLKISRVEAEDVGVYYCWQGTHFPGTFGGGTKVEIKGGGGSGGGGSGGGGSGGGGSEIQLVQSGAEVKKPGESLRISCKGSGFNIEDYYIHWVRQMPGKGLEWMGRIDPENDETKYGPIFQGHVTISADTSINTVYLQWSSLKASDTAMYYCAFRGGVYWGQGTTVTVSSGSHHHHHHHH
notes: Soluble His-tagged humanized scFv; also called humanized EGFRvIII scFv variant, VK2-VH5, 4G4S
B7: CAR5 - Soluble scFv (scFv)
scFv: EIQLVQSGAEVKKPGATVKISCKGSGFNIEDYYIHWVQQAPGKGLEWMGRIDPENDETKYGPIFQGRVTITADTSTNTVYMELSSLRSEDTAVYYCAFRGGVYWGQGTTVTVSSGGGGSGGGGSGGGGSGGGGSDVVMTQSPLSLPVTLGQPASISCKSSQSLLDSDGKTYLNWLQQRPGQSPRRLISLVSKLDSGVPDRFSGSGSGTDFTLKISRVEAEDVGVYYCWQGTHFPGTFGGGTKVEIKGSHHHHHHHH
notes: Soluble His-tagged humanized scFv; also called humanized EGFRvIII scFv variant, VH1-VK2, 4G4S

target: T1, EGFRvIII-Fc fusion protein (UniProt P00533 25-645); experiment: flow cytometry, Jurkat E6 cells electroporated with the CAR vector, stained with different concentrations of Fc fusion protein and PE anti-human IgG Fc
T1 construct: Soluble reagent used at different concentrations to stain CAR-transfected Jurkat cells; not shown: Fc part; detected with PE anti-human IgG Fc
Protocol: Jurkat E6 cells were electroporated with either CAR9 vector or CAR10 vector using Amaxa Cell Line Nucleofector Kit V (Lonza, Colgne AG, Germany) and program X-001. One day after the transfection, 0.5×10⁶ cells were placed into each well of a V-shape 96 well plate (Greiner Bio-One, Germany) in 0.2 ml FACS buffer (DPBS buffer containing 5% FBS) and incubated for 10 minutes at room temperature. Cells were then spun down and resuspended in 0.2 ml of the FACS buffer with different concentrations of EGFRvIII-Fc or EGFRwt-Fc and incubated at 4° C. for 30 minutes. Cells were then washed with FACS buffer three times, and incubated with 0.2 ml of the FACS buffer with 2 μl of PE anti-human IgG Fc (Jackson ImmunoResearch Laboratories, West Grove, PA) for 30 minutes at 4° C. in the dark. After washing with 0.2 ml of FACS buffer three times, cells were analyzed on a LSRII (BD Biosciences, San Jose, CA) machine using the FACSDiva software (BD Biosciences, San Jose, CA). Immunofluorescence staining was analyzed as the relative log fluorescence of live cells, and the percentage of the PE positive cells were measured.

| Binder | fold lower binding compared to CAR9 |
| --- | --- |
| B1 | ~40 fold |

target: T2, human EGFRvIII (epidermal growth factor receptor variant III), expressed on cells (human, UniProt P00533 25-1210); experiment: flow cytometry (FACS), purified His-tagged scFv on HEK293F cells transiently transfected with hEGFRvIII
T2 construct: whole, on cells; also called hEGFRvIII; hEGFRvII
Protocol: HEK293F suspension cells were transiently transfected with either wild type hEGFR or hEGFRvII and were harvested 2 days after transfection. Approximately 5e5 cells/per well were transferred to a BD Falcon 96 well plate. The cells were spun down at 900 rpm (Sorval Legend XT centrifuge) for 3 minutes. The supernatant was removed. Anti-EGFRvII scFv protein samples were diluted in DPBS with 5% FBS. The samples were added into the wells, mixed and incubated for 1 hour. The cells were washed twice in the DPBS with 5% FBS. The cells were incubated with anti-poly His PE (R&D) for 1 hour, washed twice before FACS analysis (LSRII from BD Biosciences).

| Binder | binding result |
| --- | --- |
| B2 | binds |
| B3 | binds |
| B4 | binds |
| B5 | binds |
| B6 | binds |
| B7 | binds |
